Data: article PMC4346919, “Structural Analysis of the Complex between Penta-EF-Hand ALG-2 Protein and Sec31A Peptide Reveals a Novel Target Recognition Mechanism of ALG-2” (International Journal of Molecular Sciences, 2015)

B1: biotin-labeled ALG-2 (natural protein, human, UniProt O75340 1-191, looked up)
chain: MAAYSYRPGPGAGPGPAAGAALPDQSFLWNVFQRVDKDRSGVISDTELQQALSNGTWTPFNPVTVRSIISMFDRENKAGVNFSEFTGVWKYITDWQNVFRTYDRDNSGMIDKNELKQALSGFGYRLSDQFHDILIRKFDRQGRGQIAFDDFIQGCIVLQRLTDIFRRYDTDQDGWIQVSYEQYLSMVFSIV
modifications: biotin-labeled
notes: ALG-2 (PDCD6), probe of the far-Western blots; also called bio-ALG-2

Columns and labels:
Test in all cases: far-Western, overlay or dot blot; purified GST-fused peptides resolved by SDS-PAGE, transferred to PVDF membranes and probed with biotin-labeled ALG-2; chemiluminescence, quantified with ImageJ
Settings in all cases: both partners purified
[1] = biological target: B1
[2] = biological target: T1, GST-8 aa-fusion of PLSCR3 (43–50) (UniProt Q9NRY6 43-50)
T1 construct: PLSCR3 residues 43-50; also called PLSCR3 8 aa, encoding 43–50
T1 chain (looked up): PAPAPGFA

[3] = biological target: T2, GST-fused Sec31A 8-residue peptide P4S (human, P4S)
T2 construct: Sec31A residues 837-844; numbers count on: the 8-residue peptide (N1 = residue 837 of Sec31A)
T2 chain: NPPSPGFI

Row | Binder | binding result [1] | FW signal relative to that for Sec31A [2] | relative binding activity (percent of WT) [3]
1 | NAPPPGFI (Sec31A residues 837-844; numbers count on: the 8-residue peptide (N1 = residue 837 of Sec31A)) [GST-fused Sec31A 8-residue peptide P2A] | binds | – | –
2 | NPPAPGFI (Sec31A residues 837-844; numbers count on: the 8-residue peptide (N1 = residue 837 of Sec31A)) [GST-fused Sec31A 8-residue peptide P4A] | binds | – | –
3 | NPPPAGFI (Sec31A residues 837-844; numbers count on: the 8-residue peptide (N1 = residue 837 of Sec31A)) [GST-fused Sec31A 8-residue peptide P5A] | binds | – | –
4 | NPPPLGFI (Sec31A residues 837-844; numbers count on: the 8-residue peptide (N1 = residue 837 of Sec31A)) [GST-fused Sec31A 8-residue peptide P5L] | binds | – | –
5 | B1 | – | < 0.0625 of the signal for Sec31A | ~20 % of WT
6 | NPPPPGFIMHGNV (peptide, UniProt O94979 837-849, looked up, Sec31A residues 837-849; also called Sec31A 13 aa, encoding 837–849) [GST-fused Sec31A peptide, 13 aa (837–849)] | binds | – | –
7 | PPPGFIMHGNVNP (peptide, UniProt O94979 839-851, looked up, also called Sec31A 13 aa, encoding 839–851) [GST-fused Sec31A peptide, 13 aa (839–851)] | binds | – | –
